In article PMC10272122 (2023) one finds Kd and koff data, which are given here for one molecule.

By Kd is commonly meant the equilibrium constant for the complex coming apart. Read a high Kd as weaker binding. Broadly, the koff is the rate constant with which the complex falls apart. Read a low koff as slow dissociation.

The experiment concerns the target PDF-2180 RBD-hFc (PDF-2180). Kind of experiment: BLI. (In BLI a coated tip is dipped into the sample, and binding shifts an interference pattern.)

B1: ACE2 from Pipistrellus pipistrellus (Ppip ACE2) (receptor)
chain: TTEEEARDFLDKFNSEAENLSHESALASWDYNTNITDENAQKMNEADSKWSDFYKEQSKRAQAFPLQEIQNLTIKLQLQILQQNGSSVLTAEKSKRLSTILTTMSTIYSTGKVCNPNNPQQCFTLSGLEDIMEKSKDYHQRLWVWEGWRSEVGKQLRPLYEEYVVLKNEMARGNNYEDYGDYWRGDYETEGEDGYNYSRNQLMEDVDRIFLEIKPLYEQLHAYVRAKLMNAYPSRISPTGCLPAHLLGDMWGRFWTNLYNLTVPFEQKQNIDVTETMKKQSWDAEKIFKEAEKFYLSVGLYSMTQGFWNNSMLTEPSDGRQVVCHPTAWDLGEDDFRIKMCTKVTMDDFLTAHHEMGHIQYDMAYAKQPYLLRNGANEGFHEAVGEVMSLSVATPKHLKGMGLLPSDFSEDNETEINFLLKQALNIVGTLPFTYMLEKWRWMVFEGKIPKEQWMEKWWEMKREIVGVVEPLPHDETYCDPASLFHVANDYSFIRYFTRTILEFQFQEALCKIAKHEGPLHKCDISNSTEAGKKLKDMLELGKSKPWTYALNQIARTKEMDAKPLLNYFEPLFSWLKKQNGNSVGWSADWSPYSEQSLKVRISLISALGEKAYEWNDNEMYLFRSSVAYAMRVYFSKMNKTIPFTAEDVRVSDEKKRVSFKFFVTSPTNISDIIPRSEVEDAIRMSRSRINDA
Molecule B1 came in with a Kd of 0.417 nM and a koff of 5.54e-05 s⁻¹.
